Data on two substances can be found in article PMC5771688.

The target in assay [1] is VE-cadherin (VEC) of VEC-positive cells (VEC-null line reconstituted with VEC wild type cDNA) (UniProt P33151). Put plainly: co-IP.
Assay [2] addresses β-catenin (endogenous) (mouse (endogenous in mouse ECs)) (UniProt Q02248). Put plainly: co-IP.
Chain of UniProt Q02248 (Q02248 whole entry): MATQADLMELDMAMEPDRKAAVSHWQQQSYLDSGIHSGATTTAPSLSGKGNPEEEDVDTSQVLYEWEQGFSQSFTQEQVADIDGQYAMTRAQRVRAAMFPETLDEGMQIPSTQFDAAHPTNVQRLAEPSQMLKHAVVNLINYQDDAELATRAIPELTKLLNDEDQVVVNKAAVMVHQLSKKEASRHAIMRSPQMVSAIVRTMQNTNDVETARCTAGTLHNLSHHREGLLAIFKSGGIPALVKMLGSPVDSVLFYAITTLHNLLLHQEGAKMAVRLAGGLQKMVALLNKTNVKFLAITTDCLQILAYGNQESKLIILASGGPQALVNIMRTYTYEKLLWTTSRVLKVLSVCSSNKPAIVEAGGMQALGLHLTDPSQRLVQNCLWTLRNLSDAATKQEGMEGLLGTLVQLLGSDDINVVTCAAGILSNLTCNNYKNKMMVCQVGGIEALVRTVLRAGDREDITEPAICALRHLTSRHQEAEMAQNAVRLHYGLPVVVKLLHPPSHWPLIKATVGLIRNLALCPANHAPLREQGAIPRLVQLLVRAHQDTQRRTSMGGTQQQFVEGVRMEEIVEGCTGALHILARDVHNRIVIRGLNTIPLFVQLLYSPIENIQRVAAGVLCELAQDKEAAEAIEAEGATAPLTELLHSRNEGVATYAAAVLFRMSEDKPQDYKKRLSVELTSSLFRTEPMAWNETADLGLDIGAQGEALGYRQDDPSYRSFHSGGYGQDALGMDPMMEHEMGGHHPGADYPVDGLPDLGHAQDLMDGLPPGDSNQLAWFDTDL

Chain of UniProt P33151 (P33151 48-784): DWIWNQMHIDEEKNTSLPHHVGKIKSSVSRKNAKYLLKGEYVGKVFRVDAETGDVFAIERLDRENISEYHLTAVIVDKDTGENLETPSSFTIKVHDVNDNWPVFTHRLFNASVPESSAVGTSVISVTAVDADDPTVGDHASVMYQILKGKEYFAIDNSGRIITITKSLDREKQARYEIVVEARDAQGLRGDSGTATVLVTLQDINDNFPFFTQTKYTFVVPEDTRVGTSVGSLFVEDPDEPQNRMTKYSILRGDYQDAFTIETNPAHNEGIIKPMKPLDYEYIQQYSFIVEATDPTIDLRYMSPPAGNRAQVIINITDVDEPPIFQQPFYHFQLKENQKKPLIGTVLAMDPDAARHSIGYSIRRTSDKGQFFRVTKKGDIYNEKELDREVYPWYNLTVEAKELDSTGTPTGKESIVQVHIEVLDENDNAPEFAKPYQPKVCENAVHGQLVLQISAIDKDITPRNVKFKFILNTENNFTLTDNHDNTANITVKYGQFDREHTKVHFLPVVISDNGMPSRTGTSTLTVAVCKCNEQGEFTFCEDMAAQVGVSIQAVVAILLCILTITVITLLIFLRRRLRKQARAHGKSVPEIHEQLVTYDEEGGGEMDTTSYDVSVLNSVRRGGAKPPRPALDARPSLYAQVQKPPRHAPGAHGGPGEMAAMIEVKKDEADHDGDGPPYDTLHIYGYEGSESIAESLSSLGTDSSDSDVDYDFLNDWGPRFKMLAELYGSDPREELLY

In the case of “TAT-M10 (Ezh2 peptide M10 synthesized in tandem with TAT of human immunodeficiency virus) (from UniProt Q61188 454-473)”, in assay [1], the percent reduction of VEC/Ezh2 association was determined as 45.3%. Regarding “TAT-P30 (Ezh2 peptide P30 synthesized in tandem with TAT of human immunodeficiency virus) (from UniProt Q61188 585-604)”, the percent reduction of VEC/Ezh2 association in assay [2] came to 28%.
